Target: high molecular weight glycoprotein gp240 on melanoma cells (human) (UniProt Q6UVK1)
Test: cell-based or functional assay

Sequence of UniProt Q6UVK1 (Q6UVK1 30-2322): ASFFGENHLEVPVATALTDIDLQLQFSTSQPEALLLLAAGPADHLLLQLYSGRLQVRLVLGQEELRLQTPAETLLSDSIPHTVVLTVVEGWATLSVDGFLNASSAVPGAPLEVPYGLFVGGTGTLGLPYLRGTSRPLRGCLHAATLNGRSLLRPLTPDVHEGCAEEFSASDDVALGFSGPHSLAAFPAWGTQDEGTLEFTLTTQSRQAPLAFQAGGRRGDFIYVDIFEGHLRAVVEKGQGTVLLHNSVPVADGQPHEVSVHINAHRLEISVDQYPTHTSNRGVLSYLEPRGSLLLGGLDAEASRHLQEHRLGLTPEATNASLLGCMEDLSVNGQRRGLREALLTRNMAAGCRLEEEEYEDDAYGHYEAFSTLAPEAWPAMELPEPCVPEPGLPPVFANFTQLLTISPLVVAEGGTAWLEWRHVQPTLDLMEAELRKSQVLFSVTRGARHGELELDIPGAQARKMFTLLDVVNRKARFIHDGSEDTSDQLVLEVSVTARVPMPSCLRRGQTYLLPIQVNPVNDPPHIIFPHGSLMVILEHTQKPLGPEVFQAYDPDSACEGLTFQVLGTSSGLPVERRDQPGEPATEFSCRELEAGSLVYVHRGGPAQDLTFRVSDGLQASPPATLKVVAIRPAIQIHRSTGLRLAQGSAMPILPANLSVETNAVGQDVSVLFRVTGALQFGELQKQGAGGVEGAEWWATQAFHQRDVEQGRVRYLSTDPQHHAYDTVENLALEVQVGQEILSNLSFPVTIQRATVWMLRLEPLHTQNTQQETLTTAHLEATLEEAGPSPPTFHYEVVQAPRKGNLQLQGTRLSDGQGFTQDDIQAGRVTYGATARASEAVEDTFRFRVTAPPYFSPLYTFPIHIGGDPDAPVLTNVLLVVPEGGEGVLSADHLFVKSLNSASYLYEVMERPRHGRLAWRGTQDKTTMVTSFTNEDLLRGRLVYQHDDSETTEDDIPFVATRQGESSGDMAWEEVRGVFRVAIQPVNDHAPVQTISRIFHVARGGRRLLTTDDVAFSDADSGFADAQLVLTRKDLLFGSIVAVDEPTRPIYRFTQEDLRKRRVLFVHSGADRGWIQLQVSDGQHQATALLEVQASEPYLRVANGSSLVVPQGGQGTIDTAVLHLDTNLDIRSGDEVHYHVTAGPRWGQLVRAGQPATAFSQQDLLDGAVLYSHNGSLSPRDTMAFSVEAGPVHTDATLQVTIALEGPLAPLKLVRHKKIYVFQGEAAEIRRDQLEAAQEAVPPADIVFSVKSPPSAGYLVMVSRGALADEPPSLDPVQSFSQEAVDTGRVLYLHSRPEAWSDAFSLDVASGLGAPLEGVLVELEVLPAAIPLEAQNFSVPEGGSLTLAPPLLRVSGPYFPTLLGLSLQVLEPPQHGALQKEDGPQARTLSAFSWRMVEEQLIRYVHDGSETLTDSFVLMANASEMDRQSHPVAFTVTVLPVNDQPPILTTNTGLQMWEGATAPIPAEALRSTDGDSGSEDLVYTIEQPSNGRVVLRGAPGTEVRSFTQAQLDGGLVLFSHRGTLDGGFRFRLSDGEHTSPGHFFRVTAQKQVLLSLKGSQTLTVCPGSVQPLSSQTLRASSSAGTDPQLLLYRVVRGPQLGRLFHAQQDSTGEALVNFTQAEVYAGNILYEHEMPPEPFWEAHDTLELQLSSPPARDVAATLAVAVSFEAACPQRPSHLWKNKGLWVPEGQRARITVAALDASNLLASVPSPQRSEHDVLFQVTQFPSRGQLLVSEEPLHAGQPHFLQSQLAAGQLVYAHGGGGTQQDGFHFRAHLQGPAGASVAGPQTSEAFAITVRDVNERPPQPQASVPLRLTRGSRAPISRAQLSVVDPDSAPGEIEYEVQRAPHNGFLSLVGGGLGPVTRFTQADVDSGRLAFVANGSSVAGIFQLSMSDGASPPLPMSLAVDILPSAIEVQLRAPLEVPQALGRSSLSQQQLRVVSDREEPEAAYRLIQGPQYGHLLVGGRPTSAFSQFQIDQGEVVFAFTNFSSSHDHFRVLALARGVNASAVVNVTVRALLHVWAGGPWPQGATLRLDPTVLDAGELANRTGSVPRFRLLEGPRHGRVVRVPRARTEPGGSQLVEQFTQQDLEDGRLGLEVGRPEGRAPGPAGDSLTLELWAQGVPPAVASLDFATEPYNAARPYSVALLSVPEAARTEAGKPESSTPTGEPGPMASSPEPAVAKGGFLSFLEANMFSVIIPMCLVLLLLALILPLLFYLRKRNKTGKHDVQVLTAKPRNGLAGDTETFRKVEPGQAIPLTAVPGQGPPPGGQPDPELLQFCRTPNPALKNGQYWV

Question: scfvMEL/rGel fusion construct was tested. Which IC50, 72 h in vitro cytotoxicity on antigen-positive A375 human melanoma cells did it give?
Answer: 8 nM

Question: With IgG ZME-018-gelonin chemical conjugate as the substance, how does the IC50, 72 h in vitro cytotoxicity on antigen-positive A375 human melanoma cells read?
Answer: 8 nM

From patent US20030176331A1
